Results published in patent US20250382354A1.

Columns and labels:
Experiment in all cases: peptide ELISA
229E FP peptide (229E) = target: 229E FP peptide (229E)
[1] = target: OC43 FP peptide (OC43), P36334
[2] = target: SARS-CoV FP peptide (SARS-CoV), P59594
[3] = target: MERS FP peptide (MERS), K9N5Q8
[4] = target: NL63 FP peptide (NL63), Q6Q1S2
[5] = target: SARS-CoV-2 FP peptide (SARS-CoV-2)
HKU1 FP peptide (HKU1) = target: HKU1 FP peptide (HKU1)
[6] = target: SARS-CoV-2 HR2 peptide (SARS-CoV-2), P0DTC2
[7] = target: HKU4 HR2 peptide (HKU4), A3EX94
[8] = target: HKU5 HR2 peptide (HKU5), A3EXD0
MHV HR2 peptide (MHV) = target: MHV HR2 peptide (MHV)
SADS HR2 peptide (SADS) = target: SADS HR2 peptide (SADS)

Binder | EC50 (229E FP peptide (229E)) [µg/mL] | EC50 [1] [µg/mL] | EC50 [2] [µg/mL] | EC50 [3] [µg/mL] | EC50 [4] [µg/mL] | EC50 [5] [µg/mL] | EC50 (HKU1 FP peptide (HKU1)) [µg/mL] | EC50 [6] [µg/mL] | EC50 [7] [µg/mL] | EC50 [8] [µg/mL] | EC50 (MHV HR2 peptide (MHV)) [µg/mL] | EC50 (SADS HR2 peptide (SADS)) [µg/mL]
fp.011 (antibody, V domains shown) VH: EVQLLESGGGLVQPGGSLRLSCAGSGFTFNNYAMTWVRQAPGRGLEWVSAISGSGGSSHYADSVKGRFTITRDNSKNTLYLQMNSLRAEDTAVYYCAFIDYYSGWSYYYGLDVWGQGTTVTVSS VL: EIVLTQSPATLSLSPGERATLSCRASQGVRTYVAWYQQKPGQAPRLLIYDASNRATGIPARFSGSGSGTDFTLTISSLEPEDFAVYYCQQRYNWPLCSFGQGTKLEIK | 0.0503 | 0.0218 | 0.023 | 0.0363 | 0.0261 | 0.0363 | 0.0197 |  |  |  |  | 
hr2.018 (antibody, V domains shown) VH: EVQLVESGGGLVKPGGSLRLSCVASGSSVIDAWMNWVRQAPGKGLEWVGRIKSKTNGATTDYAAPVKGRFTISRDDSKNLSYLQMNSLKTEDTGIYYCTTSPLPNFDYWGRGTLVTVSS VL: not shown |  |  |  |  |  |  |  | 0.0336 | 0.0417 |  |  | 
hr2.019 (antibody, V domains shown) VH: EVQLVESGGGLVKPGGSLRLSCAASGSSVIDVWMNWVRQAPGKGLEWVGRIKTKASGAATDYGAPVKGRFTISRDDSKNLSYLQMNSLRAEDTGIYYCTTSPLPNFDYWGRGTLVTVSS VL: DIVMTQSPDFLAVSLGETATINCRSSQSVFYFANNKNYLAWYQQKPGQPPKLLIYWASKRESGVPDRFSGSGSGTDFTLTISSLQAEDVATYYCQQYSSPAITFGPGTKVDIK |  |  |  |  |  |  |  | 0.0267 | 0.0154 | 0.0505 |  | 
hr2.090 (antibody, V domains shown) VH: EVQLLESGGGLVQPGGSLRLSCAASGVTFSRYAMSWVRQAPGKGLEWVSTISGGGGGTYYADSVKGRFTISRDNSKNTLYLQMNSLRAEDTAVYYCATLLTVPGPYYFEYWGQGTLVTVSS VL: EIVLTQSPGTLSLSPGERATLSCRASQSVSSSYLAWYQQKPGQAPRLLIYGASSRATGIPDRFSGSGSGTDFTLTISRLESEDFAVYYCQHSRFTFGPGTRVDIK |  |  |  |  |  |  |  | 0.085 | 0.425 |  | 0.761 | 
fp.010 (antibody, V domains shown) VH: EVQLLESGGGLVQPGGSLRLSCAASGFTFSTYAMNWVRQAPGKGLEWVSAISSSGLSTQYADSVRGRFTISRDTSKNTLYLHMNSLRAGDTAVYYCAKVEYSGYDPRGPFDSWGQGTLVTVSS VL: DIQMTQSPSTLSASVGDRVTITCRASQSISGWLAWYQQKPGRAPKLLIYKASSLERGVPSRFSGSGSGTEFTLTISSLQPDDFATYYCQEYSSYPLCTFGQGTKLEIK | 0.135 | 0.0421 |  | 0.0593 | 0.0451 | 0.119 | 0.0372 |  |  |  |  | 
hr2.021 (antibody, V domains shown) VH: QVQLVQSGAEVKKPGASVKVSCKASEAIFSGSYLHWVRQAPGQGLEWMGIITPSGDKTFYAQRFQGRLTMTRDTSTNTLHMHLSGLNSEDTAMYYCARQADKGGWDYWGQGTLVTVSS VL: EIVLTQSPGTLSLSPGERATLSCRASQSVTSNYVAWYQQKPGQAPRLLIYGASTRATGIPDRFSGGGSGTDFTLTITRLEPEDFAVYYCQQYGSSPPTFTFGPGTKVDIK |  |  |  |  |  |  |  | 0.0242 | 0.021 | 0.0551 | 0.0333 | 
hr2.024 (antibody, V domains shown) VH: QVQLVQSGAEVKKPGASVKVSCKASEDIFTDSYLHWVRQAPGQGLEWMGIITPSGDKTFYAQQFQGRLTMTRDPSTNTLYMFLSGLRSDDTAMYFCARQAEKGGWDYWGHGTLVTVSS VL: EIVLTQSPGTLSLSPGQRATLSCRSSQTITSNYLAWYQQRPGQAPRLLIYGASIRATGIPDRFSGSGSGTDFTLTISRLEPEDFAVYYCQQYGSSPPTFIFGPGTKVDIK |  |  |  |  |  |  |  | 0.106 | 0.0184 | 0.048 | 0.0259 | 
hr2.023 (antibody, V domains shown) VH: QVQLVQSGAEVKKPGASVKVSCRASENIFSDSYLHWVRQAPGQGLEWMGIITPSGDKTFYAQQFQGRLTMTRDTPTNTLHMDLRGLTSADTAIYYCARQATKGGWDYWGQGTLVTVSS VL: EIVLTQSPGTLSLSPGESATLSCRASQSVTRNYLAWYQQQPGQAPRLLIYGASNRATGVPDRFSGSGSGTDFTLTISRLEPEDFAVYYCQQYGSSPPTFIFGPGTKVDIK |  |  |  |  |  |  |  | 0.0175 | 0.0149 | 0.0422 | 0.0106 | 
hr2.016 (antibody, V domains shown) VH: EVQLLESGGGLVQPGGSLRLSCAASGFMFSKYAMTWVRQTPGKGLEWVSVISGGGGSTYYADSVKGRFTISRDNSKNTLYLQMNSLRAEDTAVYYCAKLLVVFVIDYWGQGALVTVSS VL: EIVLTQSPGTLSLSPGERATLFCRASQSVSSNLAWYQQKPGRAPRLLISGASSRATGIPDRFSGSGSGTDFTLTISRLEPEDFAVYYCQQYGSSPPTFGQGTKVEIK |  |  |  |  |  |  |  |  | 0.00744 | 0.0256 | 0.0266 | 0.0738
hr2.014 (antibody, V domains shown) VH: QVQLVQSGAEVKKPGASVKVSCKASGYTFTTYAVHWLRQVPGQRPEWIGWINAANGNTKYSEKFQGRVTITRDTSASTAYMDLRSLRSEDTAVYYCARLLVVRDDPYYYGMDVWGQGTTVTVSS VL: not shown |  |  |  |  |  |  |  | 0.0357 | 0.0457 | 0.0312 |  | 0.705
hr2.086 (antibody, V domains shown) VH: EVQLLESGGGLVQPGGYLRLSCAASGFTFSSYAMSWVRQAPGKGLEWVSVISGGGGSAYYADSVKGRFTISRDNSKNTLYLQMNSLRAEDTAVYYCAKIGMILVFDYWGQGTLVTVSS VL: EIVLTQSPGTLSLSPGERATLSCRASQSVSNNYLAWYQQKPGQAPRLLISGASSRATGIPDRFSGSGSGTDFTLTISRLEPEDFAVYYCQQYGSSPPTFGQGTKVEIK |  |  |  |  |  |  |  |  | 0.0269 |  |  | 
hr2.017 (antibody, V domains shown) VH: EVQLVESGGGLVQPGGSLRLSCAVSGFAFSSSWMHWIRQAPGRGLVWVSRINRDGSTTDYADSVKGRFTISRDNAKATLYLQMNSLRAEDTAVYYCATMGFDYWGQGALVTVSS VL: DIVMTQSPDSLAVSLGERATINCKSSQNVLYSSNNKNHLSWYQQKPGQPPKLLIYWASTRKSGVPDRFSGSGSGTDFTLTINSLQAEDVAVYYCQQYFSTPNTFGQGTKLEIK |  |  |  |  |  |  |  | 0.0145 | 0.0203 | 0.0249 | 0.02 | 
hr2.020 (antibody, V domains shown) VH: EVQLVQSGAEVKKPGESLKISCKGSGYRFASHWIGWVRQMPGKGLQWMGIIYPGDSDTKYSPSFQGQVTISADKSINTVYLHWTSLKASDTAVYYCARRPPHLDGGDSPIRFDHWGQGTLVTVSS VL: QSVLTQPPSASGTPGQRVTISCSGSRSNIGSNDVYWYQQFPGTAPKLLIYRNNQRPSGVPDRFSGSKSGTSASLAISGLRSEDEADYYCATWDDRLTGVFGGGTKLTVV |  |  |  |  |  |  |  | 0.0353 | 0.0352 | 0.0631 | 0.0285 | 
fp.001 (antibody, V domains shown) VH: VQLVESGGGVVQPGRPLRLSCSGSGFIFSNYAMHWVRQAPGKGLEWVAIISFDARNKRYADSVEGRFTISRDNSKNILYLQMNSLRLEDSAVYFCARDLFLSDYDNGVYDPTRGGFDYWGQGTLVTVSS VL: EIVMTQSPATLSLSPGERATLSCRASQSVNNRLAWYQQKLGQPPRLLISGASTRATGIPARFTGSGSGTEFTLTISSLQSEDFAVYYCQQYHDWPLLSFGGGTKVEIK | 0.0232 | 0.0175 | 0.0289 | 0.0369 | 0.0214 | 0.0249 | 0.0298 |  |  |  |  | 
hr2.012 (antibody, V domains shown) VH: QVQLVQSGAEVKKPGASVKVSCKASGYTFTSHYIHWVRQAPGQGLEWMGIIKPSGGNTIYAQTFQGRVTMTRDTSTSTVYMELRSLTSDDTAVYYCARDQDHGLQRWGQGTLVTVSS VL: QSVLTQPPSVSAPPGQKVTISCSGSSSNIGNNFVSWYQQLPGTAPKLLIYDNIERPSGIPDRFSGSRSGTSATLGITGLQTGDEADYYCGTWDTSLGAWVFGGGTKVTVL |  |  |  |  |  |  |  | 0.0196 | 0.0184 | 0.0204 | 0.0177 | 0.023
hr2.013 (antibody, V domains shown) VH: QVQLVQSGAEVKKPGASVKISCKASGYTFTNNYMNWVRQAPGQGLEWMGIIKPSSGSTIYAHKFQGRVTMTRDTSTSTVYMEVRSLTSEDTAVYYCARDQDHGLQNWGQGTLVTVSS VL: QSVLTQPPSVSAASGQKVTIYCSGSSSNIASNFVSWYQQFPGTAPKLLIYDNNQRPSGIPDRFSGSRSGTSATLGITGLQTGDEADYYCGTWDTSLGAWVFGGGTKLTVL |  |  |  |  |  |  |  | 0.0317 | 0.0181 | 0.0292 | 0.043 | 0.042
fp.008 (antibody, V domains shown) VH: VQLVESGGGVVQPGRSLRLSCRASGFRFNNYAMHWVRQAPGKGLEWVAIISYEARNEKYAASVKGRFSISRDNAKNTLYLQMNSLRPEDTAIYYCARDVFLSDYDQSGYDVTRGGFDYWGQGTLVTVSS VL: EIVMTQSPATLSVSPGESATLSCRASQSVSSSLAWYQHKFGQAPRLLIYGASTRATGIPDRFSGSGSGMEFTLTISSLQSEDVAIYYCQQYGDWPLVTFGGGTKVEIK | 0.019 | 0.0235 | 0.0267 | 0.0361 | 0.0226 | 0.0366 | 0.0219 |  |  |  |  | 
